Test results published in patent publication US20080207488A1, “Method for Detecting Peptides Comprising a Cross-B Structure” (priority 2005, published 2008).
Entries after “also recorded” stand apart in the source; their conditions may differ.

Key:
[1] = ThT fluorescence of CpG-ODN-protein mixtures; type: physicochemical; settings: for increase in ThT fluorescence / ThT fluorescence enhancement: 1 mg ml^−1 protein; for increase in ThT fluorescence: 30 min. at room temperature (FIG. 4D, E); for ThT fluorescence enhancement: overnight
Experimental: Fluorescence of ThT-protein/peptide adducts was measured as follows. […] Fluorescence was measured at 485 nm upon excitation at 435 nm. Background signals from buffer, buffer with ThT and protein/peptide solution without ThT were subtracted from corresponding measurements with protein solution incubated with ThT. […] Fluorescence was measured in triplicate on a Hitachi F-4500 fluorescence spectrophotometer (Ltd., Tokyo, Japan).
Enhancement of ThT fluorescence was measured similarly as described above. […]

tPA = biological target: T1, tPA (Homo sapiens, UniProt P00750); assay: Biacore surface plasmon resonance, binding to immobilized tPA; settings: Hb-AGE 32, amyloid γ-globulins 62.5, albumin-AGE 3.9 μg ml^−1
T1 construct: purchased Boehringer-Ingelheim (Actilyse, Alteplase)
T1 sequence (P00750 36-562): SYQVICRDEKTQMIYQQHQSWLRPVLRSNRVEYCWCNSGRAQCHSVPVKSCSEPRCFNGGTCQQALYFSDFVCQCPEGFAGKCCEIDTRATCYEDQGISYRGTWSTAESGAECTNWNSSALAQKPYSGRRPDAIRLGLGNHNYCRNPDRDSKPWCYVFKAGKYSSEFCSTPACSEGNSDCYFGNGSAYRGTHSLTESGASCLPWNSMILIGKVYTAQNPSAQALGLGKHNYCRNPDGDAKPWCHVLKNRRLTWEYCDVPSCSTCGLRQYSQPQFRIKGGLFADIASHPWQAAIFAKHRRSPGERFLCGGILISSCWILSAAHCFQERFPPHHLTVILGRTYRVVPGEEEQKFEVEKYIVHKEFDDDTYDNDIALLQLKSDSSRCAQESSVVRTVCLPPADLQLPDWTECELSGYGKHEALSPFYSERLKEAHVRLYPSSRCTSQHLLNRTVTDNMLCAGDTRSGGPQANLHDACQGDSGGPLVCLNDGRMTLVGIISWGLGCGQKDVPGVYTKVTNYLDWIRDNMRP
Experimental: Binding of cross-β structure conformation containing peptides/proteins was studied using surface plasmon resonance technology with a Biacore 2000 apparatus (Biacore AB, Uppsala, Sweden). A standardized amine coupling procedure was used to couple proteins with F domains to a CM5 chip (Biacore AB, Uppsala, Sweden). First, the dextran surface of the chips was activated by a 35 μl injection with a 1:1 mixture of 0.1 M N-hydroxysuccinimide (NHS) and 0.4 M N-ethyl-N′-(dimethylaminopropyl)carbodiimide (EDC) at a flow rate of 5 μl min.^−1. Then, the proteins were covalently coupled to the activated dextran surface. Remaining activated groups in each of the four flow channels were blocked by injection of 35 μl of 1 M ethanolamine hydrochloride pH 8.5. EDC, NHS and ethanolamine hydrochloride were obtained from Biacore. On one chip, on channels 1 to 4, buffer (reference channel), the soluble extracellular part of receptor for advanced glycation endproducts (sRAGE), tPA and K2P-tPA were immobilized. […] Binding of albumin-AGE was determined with a solution of 3.9 μg ml^−1 albumin-AGE in running buffer. albumin-AGE was filtered on a Millex-GV 0.22 μm filter unit (Millipore). […] Binding of Hb-AGE was also tested after centrifugation for 10 min. at 16,000*g alternative to filtration. tPA activation before and after filtration was assessed with a Plg-activation assay. […]

[2] = system: human tissue-type plasminogen activator finger EGF (tPA F-EGF) fragment; assay: ELISA, binding of tPA F-EGF to coated (mis)folded proteins; settings: coated protein, FIG. 7A, I; listed as BSA-AGE
human tissue-type plasminogen activator finger EGF (tPA F-EGF) fragment, sequence (P00750 39-120 limits assumed): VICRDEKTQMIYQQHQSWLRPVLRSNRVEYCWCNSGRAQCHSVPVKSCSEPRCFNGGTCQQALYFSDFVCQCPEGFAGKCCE
Experimental: The plates were blocked using Blocking reagent (Roche 1112589). A dilution series of the protein of interest was applied to the coated proteins and wells were subsequently washed using TBS-T (50 mM Tris pH 7.3, 150 mM NaCl and 0.1% Tween20). Bound protein is detected by the FLAG-tag using 1:3000 anti-FLAG-HRP (Sigma A-8592) in PBS-T, or by 1:1000 Ni-NTA-HRP (Qiagen 34530) in PBS-T. The HRP reaction Is performed using the TMB substrate (Biosource 4501103 or Tebu Bio 101TMB100-500), stopped using 10% H2SO4 and absorbance was measured at 450 nm.

| Substance | increased ThT fluorescence ([1]; 1 mg ml^−1 protein exposed to 21.4 μg ml^−1 CPG-ODN (FIG. 4F)) | increase in ThT fluorescence ([1]; 10.4 μg ml^−1 CPG-ODN) | ThT fluorescence enhancement ([1]; 10.7 μg ml^−1 CPG-ODN) [factor] | ThT fluorescence enhancement ([1]; 21.4 μg ml^−1 CPG-ODN) [factor] | increase in ThT fluorescence ([1]; 21.7 μg ml^−1 CPG-ODN) [times] | ThT fluorescence enhancement ([1]; 42.8 μg ml^−1 CPG-ODN) [factor] | binding to immobilized tPA (tPA) | binding of tPA F-EGF [2] |
| --- | --- | --- | --- | --- | --- | --- | --- | --- |
| lysozyme: chicken egg-white lysozyme | no effect | approximately 8 times | 1.1 | 1.2 | ~7 | 1.4 |  |  |
| albumin-AGE: advanced glycation end-product modified bovine serum albumin |  |  |  |  |  |  | bind | High binding affinities; also recorded: high affinity binding |
